The source of these data is patent US20070020327A1.

The target of one test is HLA-A*0202 (human). In words: competition with 125I-labelled standard peptide for purified HLA, gel filtration. In general terms: SEC sorts molecules by how far they enter the pores of the column.
A further test has as its target HLA-A*0206 (human). The description is as above. The settings on record: for binding affinity ratio: scale: ratio.
A further test addresses HLA-A*0203 (human). The test is described as above. The conditions noted are these: for binding affinity ratio: scale: ratio.
In test [1] the target is HLA-A*0201 (human). As to the kind of experiment: competitive inhibition of 125I-labelled standard peptide binding to purified HLA, gel filtration.
Test [2] concerns the target HLA-A*0201 (purified HLA class I molecule) (human). In words: competition with 125I-labelled standard peptide for purified HLA, gel filtration.
Test [3] addresses HLA-A*0201 (human). The test is described as above. The settings on record: for binding affinity ratio: scale: ratio.
[4] abbreviates: remark: other sources report otherwise.

Where two headings read alike, the source gives them in different places.

B1: peptide 1126.01 (PSM.663) (peptide)
peptide: MMNDQLMFL
modifications: not checked
In the case of B1, the half-maximal inhibitory concentration (IC50) (in general, the concentration that gives 50% inhibition) with HLA-A*0202 (human) is 0.8 nM; with HLA-A*0206 (human), 7.6 nM; with HLA-A*0203 (human), 1.7 nM.

B2: … (Kallikrein, position 226) (peptide)
peptide: ITSWGPEPCAL
modifications: not checked
Take B2: in the test with HLA-A*0201 (human) [1] (setting [4]), the binding affinity ratio (ratio to standard peptide) was determined as 0.0003.

B3: Kallikrein 102 … (peptide)
peptide: NMSLLKHQSL
modifications: not checked
On to B3, for which, in the test with HLA-A*0203 (human) (setting [4]), the binding affinity ratio (IC50 of standard peptide / IC50 of test peptide) came out at 0.04.

B4: … (PSM, position 193) (peptide)
peptide: KINCSGKIV
modifications: not checked
For the molecule B4, the binding affinity ratio (ratio to standard peptide) with HLA-A*0201 (human) [1] came to 0.0002.

B5: … (PSM, position 200) (peptide)
peptide: IVIARYGKV
modifications: not checked
For the molecule B5, the binding affinity ratio (ratio to standard peptide) with HLA-A*0201 (human) [1] amounted to 0.0001.

B6: peptide 1419.24 (PSA.166.V10) (peptide)
peptide: KLQCVDLHVV
modifications: not checked
For the molecule B6, the IC50 with HLA-A*0203 (human) (setting [4]) came out at 9.5 nM.

B7: … (PSM, position 193) (peptide)
peptide: KINCSGKIVI
modifications: not checked
Regarding B7, the binding affinity ratio (ratio to standard peptide) with HLA-A*0201 (human) [1] was 0.0001.

B8: Kallikrein (hK2) peptide LVHPQWVL (position 54, 8 amino acids) (peptide)
peptide: LVHPQWVL
modifications: not checked
In the case of B8, the binding affinity ratio (IC50 of standard peptide / IC50 of test peptide) in test [2] amounted to 0.0001.

B9: PSA 149 peptide YASGWGSI (peptide)
peptide: YASGWGSI
modifications: not checked
As for B9, the binding affinity ratio (IC50 of the standard peptide / IC50 of the test peptide) with HLA-A*0202 (human) is 0.0009; in the test with HLA-A*0201 (human) [3], -0.0001; with HLA-A*0206 (human) it was 0.0003; in the test with HLA-A*0203 (human), 0.0003.

B10: … (PSM, position 304) (peptide)
peptide: KLLEKMGGSA
modifications: not checked
As for B10, the binding affinity ratio (ratio to standard peptide) with HLA-A*0201 (human) [1] was determined as 0.0003.

B11: peptide 1126.10 (PSM.27) (peptide)
peptide: VLAGGFFLL
modifications: not checked
As for B11, in the test with HLA-A*0202 (human) (setting [4]), the IC50 is 0.2 nM.

B12: … (PSM, position 66) (peptide)
peptide: KAENIKKFL
modifications: not checked
Regarding B12, the binding affinity ratio (ratio to standard peptide) with HLA-A*0201 (human) [1] was 0.0002.

B13: Kallikrein 129 … (peptide)
peptide: PAKITDVVKVL
modifications: not checked
With B13, the binding affinity ratio (IC50 of standard peptide / IC50 of test peptide) in the test with HLA-A*0202 (human) was 0.0006; in the test with HLA-A*0201 (human) [3], 0.0002; with HLA-A*0206 (human) it was -0.0001; with HLA-A*0203 (human), 0.0017.

B14: … (PSM, position 623) (peptide)
peptide: KTYSVSFDSL
modifications: not checked
For the molecule B14, in the test with HLA-A*0201 (human) [1], the binding affinity ratio (ratio to standard peptide) amounted to 0.0002.

B15: Kallikrein 129 … (peptide)
peptide: PAKITDVVKV
modifications: not checked
On to B15, for which the binding affinity ratio (IC50 of standard peptide / IC50 of test peptide) with HLA-A*0202 (human) (setting [4]) stood at 0.01; with HLA-A*0206 (human) (setting [4]), 0.0006.

B16: … (PSM, position 723) (peptide)
peptide: KAWGEVKRQI
modifications: not checked
For the molecule B16, in the test with HLA-A*0201 (human) [1], the binding affinity ratio (ratio to standard peptide) was 0.0001.

B17: … (PAP, position 282) (peptide)
peptide: KLIMYSAHDT
modifications: not checked
As to B17, the binding affinity ratio (ratio to standard peptide) in the test with HLA-A*0201 (human) [1] came out at 0.0002.

B18: … (PSA, position 119, 11 amino acids) (peptide)
peptide: LLRLSEPAELT
modifications: not checked
On to B18, for which the results for the binding affinity ratio with HLA-A*0201 (human) [3] (setting [4]) and with HLA-A*0206 (human) (setting [4]) were 0.0023 and 0.0002, respectively.

B19: … (PAP, position 234) (peptide)
peptide: KLRELSELSL
modifications: not checked
As to B19, the binding affinity ratio (ratio to standard peptide) with HLA-A*0201 (human) [1] is 0.004.

B20: … (Kallikrein, position 131) (peptide)
peptide: KITDVVKVLGL
modifications: not checked
For the molecule B20, the binding affinity ratio (ratio to standard peptide) with HLA-A*0201 (human) [1] (setting [4]) was 0.0002.

B21: … (PSM, position 199) (peptide)
peptide: KIVIARYGKV
modifications: not checked
On to B21, for which the binding affinity ratio (ratio to standard peptide) with HLA-A*0201 (human) [1] was 0.0002.

B22: peptide 1419.13 … (HuK2.120.V11) (peptide)
peptide: DLMLLRLSEPV
modifications: not checked
In the case of B22, in the test with HLA-A*0201 (human) [1] (setting [4]), the IC50 was found to be 50 nM.

B23: PSM peptide … (position 473, 9 amino acids) (peptide)
peptide: LVHNLTKEL
modifications: not checked
As to B23, the binding affinity ratio (IC50 of standard peptide / IC50 of test peptide) in test [2] came to 0.0001.

B24: peptide 1126.14 (PSM.469) (peptide)
peptide: LMYSLVHNL
modifications: not checked
Take B24: the IC50 in the test with HLA-A*0202 (human) stood at 0.4 nM; with HLA-A*0201 (human) [3], 64 nM.

B25: Kallikrein (hK2) peptide … (position 11, 11 amino acids) (peptide)
peptide: SVGCTGAVPLI
modifications: not checked
B25: the binding affinity ratio with HLA-A*0202 (human) (remark: other sources report otherwise, scale: ratio) is 0.001; with HLA-A*0201 (human) [3] (setting [4]), 0.01.

B26: peptide 1419.27 (PSA.3.V11) (peptide)
peptide: FLTLSVTWIGV
modifications: not checked
Turning to B26, the IC50 stood at 3 nM with HLA-A*0202 (human), 6.8 nM with HLA-A*0201 (human) [3], 65 nM in the test with HLA-A*0206 (human) and 18 nM with HLA-A*0203 (human).

B27: Kallikrein (hK2) peptide … (position 175, 9 amino acids) (peptide)
peptide: SLHLLSNDM
modifications: not checked
On to B27, for which the binding affinity ratio in the test with HLA-A*0201 (human) [3] (setting [4]) is 0.0003; with HLA-A*0206 (human) (setting [4]), -0.0001.

B28: peptide 1389.20 (PSM.27.V9) (peptide)
peptide: VLAGGFFLV
modifications: not checked
On to B28, for which the IC50 with HLA-A*0202 (human) was determined as 0.4 nM; in the test with HLA-A*0201 (human) [3] it was 26 nM; with HLA-A*0206 (human), 57 nM; in the test with HLA-A*0203 (human) it was 5 nM.

B29: PSA 239 peptide … (peptide)
peptide: YTKVVHYRKWI
modifications: not checked
With B29, the binding affinity ratio (IC50 of the standard peptide / IC50 of the test peptide) in the test with HLA-A*0202 (human) was -0.0001; with HLA-A*0201 (human) [3], 0.0001; with HLA-A*0206 (human), -0.0001.

B30: Kallikrein 243 peptide … (peptide)
peptide: YTKVVHYRKWI
modifications: not checked
Take B30: the binding affinity ratio (IC50 of the standard peptide / IC50 of the test peptide) with HLA-A*0202 (human) is -0.0001; with HLA-A*0201 (human) [3], 0.0001; in the test with HLA-A*0206 (human) it was -0.0001.

B31: Kallikrein 153 peptide YASGWGSI (peptide)
peptide: YASGWGSI
modifications: not checked
Take B31: the binding affinity ratio (IC50 of the standard peptide / IC50 of the test peptide) in the test with HLA-A*0202 (human) is 0.0009; in the test with HLA-A*0201 (human) [3], -0.0001; in the test with HLA-A*0206 (human), 0.0003; with HLA-A*0203 (human), 0.0003.

B32: … (Kallikrein, position 137, 11 amino acids) (peptide)
peptide: KVLGLPTQEPA
modifications: not checked
Take B32: the binding affinity ratio with HLA-A*0201 (human) [3] stood at 0.0001; with HLA-A*0203 (human), 0.0009.

B33: PSA peptide … (position 203, 11 amino acids) (peptide)
peptide: STCSGDSGGPL
modifications: not checked
For B33, the binding affinity ratio was found to be 0.0005 with HLA-A*0201 (human) [3] (setting [4]), 0.0002 with HLA-A*0206 (human) (setting [4]) and 0.0092 with HLA-A*0203 (human) (setting [4]).

B34: … (PSM, position 122) (peptide)
peptide: KTHPNYISI
modifications: not checked
As for B34, the binding affinity ratio (ratio to standard peptide) with HLA-A*0201 (human) [1] was determined as 0.0002.

B35: … (PSM, position 122) (peptide)
peptide: KTHPNYISII
modifications: not checked
As to B35, in the test with HLA-A*0201 (human) [1], the binding affinity ratio (ratio to standard peptide) was 0.0001.

B36: peptide 1129.08 (PSM.711) (peptide)
peptide: ALFDIESKV
modifications: not checked
Take B36: in the test with HLA-A*0202 (human) (setting [4]), the IC50 is 0.7 nM.
